± gives the uncertainty stated by the source.
Test: amyloid nucleation score (Sup35N fusion, yeast selection) (log enrichment); library NNK2; higher = more nucleation; inactive = no reads after selection
In short: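 Three technical output replicates were used for random libraries. Psi-negative yeast expressing peptides of 20 random codons fused to Sup35N were induced with 100 μM copper sulfate for 24 hours and grown 7 days at 30°C on medium lacking adenine and uracil, and input and output plasmid inserts were Illumina-sequenced, excluding sequences with under 100 input reads. The nucleation score is the DiMSum log enrichment of output over input reads, centred on the mode score of non-aggregating sequences.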

Substance	amyloid nucleation score
CDVGFSHRYSSNYDKTWDMI	-0.7 ± 0.78
DSQKLAGVVSIKVSVANVLS	3.9 ± 0.11
YAFSCFKSNVFWKGTGNRRG	-0.973 ± 0.63
VRRYYDSKSSIAYMLSIRVD	-0.447 ± 0.27
MMKGRDKTGYPTTRGVMCDK	0.232 ± 0.18
GSLVQNVFTMDGGDYHMR	0.307 ± 0.27
RVSSYSQATKKLKHERFGDV	-0.533 ± 0.44
TKTILRILSQFIYDSPLLEM	-0.19 ± 1.1
SFELFCVWGR	-0.827 ± 0.54
EVLSRDRSSAPFAVLLAGSR	0.129 ± 0.76
NRVVHFISIFGFMNS	3.6 ± 0.098
GVKRLVTGVCNKYRDIFFVG	-0.22 ± 1
AEADGYLFSALHTPYWTSGV	0.294 ± 0.64
TSRRL	2.1 ± 0.13
GSKGIRRYCLTIFVSPVQSA	0.895 ± 0.81
LTRFMYYLFTDLC	-0.813 ± 1.1
NVFTNTLVN	8.667 ± 0.081
NQSESFHGLDHFTRNHGGCR	inactive
ATESIMLLPYNTDPSMTWLT	0.227 ± 0.55
RFEMRSGLKDKLDKVGS	inactive
RTDSGTMMCRVWAMYPESTS	1.22 ± 0.41
CGKCWCEVD	0.359 ± 0.37
YTLDMIIELSLDDGGYVVWG	4.756 ± 0.04
MLYYTCTQQHTDFLRCF	-0.391 ± 0.32
SFNFEVEWRRASNLSFRWGR	0.039 ± 0.61
LCDLVKASSMFANGSDHFIV	-0.569 ± 0.61

Substance	amyloid nucleation score
WFMEILFVV	-0.383 ± 0.26
SRLTS	2.32 ± 0.066
FKRSTCNLR	-0.479 ± 0.29
VKFNDFTHKNWY	0.058 ± 0.74
QSMSNACFVMGTRCITKRAA	4.633 ± 0.044
VNFNMALDNYFSNFEYRVRN	-1.17 ± 0.35
FSVRRLVDHFSNSMEDPHLP	-0.342 ± 1
YGDCLRLTDSYVSIFTRVPT	0.159 ± 0.3
VRWTRFQALLYLK	inactive
DTAHTNISECRAMVRMYRSR	-0.755 ± 1.1
IVYLWRNRWVDLADYLLHVM	0.313 ± 0.29
TRGCFAVSSKYMLSYVGLNR	-0.021 ± 0.21
FRIPRWFKTS	-0.284 ± 1.1
RTCHGHYFLMM	0.683 ± 0.74
NVRVRLET	0.027 ± 0.27
SYNTHQLSRSPF	-0.131 ± 0.23
LVQCRNVSMNTILSIGGGKS	6.17 ± 0.075
HFLSFSMGWNSC	4.82 ± 0.063
ILGDRSRSS	0.388 ± 0.62
PDDLYCNPEGSLYQSIW	inactive
HETLQASIFVLLIHTKYHES	-1.58 ± 1
GTSHWWIGMRFSEADLLLDW	0.656 ± 0.41
DDIKIWFRATVHVVF	inactive
RCGSDLCDTFWVTLRGYGEV	0.595 ± 0.43
DEIIQRWIFNFIWDRLFYLR	0.94 ± 0.14
YTVRKNNLVVQESMFLSKCW	0.855 ± 0.12

Substance	amyloid nucleation score
DSLLKVLRRIWCLYVGGNLI	-0.758 ± 0.37
HCSFCVIVGFNRCDALGSHR	7.03 ± 0.075
IWPSRSGCVSVASVRI	0.98 ± 0.33
TGRGAHFHRI	-0.24 ± 0.42
RVIGVWILIAWQRQV	0.822 ± 0.66
WKFSYDFSASASGHHALVNK	3.22 ± 0.13
GRPVMMEMPII	0.512 ± 0.42
FVDVKHDVVKAMRLWFR	-0.632 ± 1.1
TLASRTNF	inactive
QGLMIVINGSSYYVYVCLKG	1.09 ± 0.12
SYFEMAYEWYCMNWMGEVIK	9.197 ± 0.054
CYCSSL	-0.253 ± 0.2
DYRMVYSCCMLGREGWRNTW	5.606 ± 0.035
NNKFLQVSYS	-0.409 ± 0.78
LIGCPLVDFTLYLCS	inactive
WCLLAIFSYCNDPLVLIARR	2.26 ± 0.12
SQYFYMFWMSRATITNTIMP	-0.217 ± 0.74
HPGMVVIAE	3.97 ± 0.075
RRSWCLGFSRDLMSELKGIS	1.4 ± 0.41
YSYILSFSSFFYFLRHCIKY	inactive
SGFII	-1.18 ± 1.1
GCDTRHSPLVSNALGLAIAS	-0.052 ± 0.49
QDCKAISSCLFRLLPELSLR	-0.92 ± 1.1
MNGCTTANGIVDTRSNAFTC	1.87 ± 0.097
CPIYDRTQGLIGLWCLCNEC	-0.668 ± 0.34
WSRFSCRT	1.24 ± 0.2

Substance	amyloid nucleation score
QIQVYMNALLTRLSSIILIF	-0.93 ± 0.55
VFIMGPTS	3.96 ± 0.092
NHITMFDRVSYYVKLKHYVA	0.452 ± 0.37
LLMLVSFLIDDEAFSVFDLL	0.672 ± 0.39
HDTESTLVTVLRAFLHRCDY	0.411 ± 0.56
SCHVC	5.854 ± 0.058
PSSYGWCMLFLVWDIQSTL	-0.829 ± 1
LITRGCCL	-0.33 ± 0.76
AQAMLSNTILIYEYRDLFIV	-0.962 ± 0.78
GHLNFS	-0.166 ± 1.1
SYSYFLELVSYKFSVVFLSI	0.715 ± 0.58
LVHRCRYGLLTGLFEGQPVM	-1.12 ± 1.1
VSIYLG	2.72 ± 0.15
VRSGTLFARTKWEESSCHLF	0.641 ± 0.4
LFERLELFWYNEGHIMGFGL	3.42 ± 0.049
AKCPIRNRSLSCIQWSGGAK	0.398 ± 0.27
IYIAKW	-0.656 ± 0.33
PSYMACSA	-0.187 ± 0.56
ESLMKSYVLSAYMCGPIGGR	1.03 ± 0.37
LEYCDATLVVRDRQVSAVFL	0.584 ± 0.35
TYGLVTRTGAV	0.247 ± 0.43
YRSWIGYCSNDVSQTLCTVM	9.164 ± 0.024
RNNRLTLVRVSFDVQCEPMV	0.468 ± 0.46
TVMNVDWFKDYLLTNFVCSD	0.063 ± 0.36
WQSAEEWMLPYGVNMVVSWA	0.483 ± 0.46
FWVALYFSTCFPHDMLSSGP	-0.734 ± 0.54

Substance	amyloid nucleation score
WRMGTPNIRMLC	-0.318 ± 0.38
KSIESGRIRK	0.627 ± 0.35
STNEWF	-1.06 ± 0.62
SNKTIYKLFRIISPGYFGSS	-1.16 ± 1
LSCHSDITILHDYTNLLSFI	-0.007 ± 0.63
FLSVEENGLTDVTVMGWFV	0.19 ± 1.1
SYGHDWVGKGKVGGIRLM	-0.904 ± 0.49
YRCFGERIFLHAHRE	inactive
IGARFKFNQWTSYYIQRF	inactive
PTSDALLKCSAPFCSVRPVP	0.138 ± 0.76
GHCLSYMCVGLA	4.304 ± 0.039
SVYDTKHLLNLLDSAVISNH	-0.481 ± 0.76
CLAFNFVFIHPSTGAFSRTS	8.38 ± 0.072
NRRLRHIWRNNSLTSKN	-0.279 ± 0.25
VCCAFLCASRAVVYTGKDMH	10.18 ± 0.027
FIARDRLMTDRTRGKPSWEG	0.231 ± 0.3
YEFCVAFFDRNNCNREP	-1.6 ± 0.75
PICHLRGGSISRRSNFIQGC	-1.12 ± 0.76
LHYTYVSDCVCRMDTLLFGL	-0.278 ± 0.45
NWVMVLGLGVCKSIWLLPMV	-0.572 ± 0.76
KMTLLFARQFGV	2.93 ± 0.12
FYIKRVTAVNCDTDSSFNVL	-0.805 ± 0.42
GVSVV	inactive
LNWFFLL	0.937 ± 0.26

Source: the supplement of paper PMC12042874
